Experiments:
[1] = molecular target: Staphylococcus aureus PriA helicase (S. aureus); test: SPR; SaPriA immobilised on CM5 chip, Biacore T200, 293 K, 40 mM Tris, 200 mM NaCl, 0.05% Tween-20, pH 8.0; analyte injected 120 s at 30 uL/min; 1:1 (Langmuir) model
[2] = molecular target: Staphylococcus aureus single-stranded DNA-binding protein SsbA (S. aureus subsp. aureus ED98); test: SEC; purified SaSsbA (2 mg/mL) on Superdex 200 prep grade in Buffer B (20 mM HEPES, 100 mM NaCl, pH 7.0), calibrated with proteins of known molecular weight
SaSsbA = SaSsbA (Staphylococcus aureus subsp. aureus ED98, UniProt A0A0D1JHQ1 1-167); test: EMSA; 100 mM NaCl; EMSA: 20 mM Tris-HCl pH 8.0, 100 mM NaCl (or 0.4 M NaCl), 1.7 nM DNA, 25 C, 30 min; native 8% PAGE in TBE at 4 C; conditions: protein: recombinant; chain copies: 4; label: 32P (5' end, T4 PNK); single strand

Staphylococcus aureus single-stranded DNA-binding protein SsbA (natural protein)
Kd [1]: 46 nM | stoichiometry N [2]: 4

TTTTTTTTTTTTTTTTTTTT (ssDNA) [dT20]
apparent K (half saturation) (SaSsbA): 292 ± 28 nM

TTTTTTTTTTTTTTTTTTTTTTTTTTTTTTTTTTTTTTTT (ssDNA) [dT40]
apparent K (half saturation) (SaSsbA): 90 ± 5 nM

TTTTTTTTTTTTTTTTTTTTTTTTTTTTTT (ssDNA) [dT30]
apparent K (half saturation) (SaSsbA): 186 ± 20 nM
